Laboratory results taken from patent US20250101091A1.

Assays:
TGFα (human) = TGFα (human) (UniProt P01135); experiment: ELISA: biotinylated ligand (20 nM) captured on neutravidin plate, antibody titrated 1:3, anti-human kappa-AP detection, OD405 [panel B]
[1] = target: Cleaved human epiregulin (human) (UniProt O14944); experiment: as above
[2] = target: Cleaved rabbit epiregulin (rabbit); experiment: cell-based or functional assay
[3] = target: Cleaved rat epiregulin (rat) (UniProt Q9Z0L5); experiment: cell-based or functional assay
[4] = target: Cleaved cynomolgus monkey epiregulin (cynomolgus monkey); experiment: cell-based or functional assay
[5] = target: Cleaved human epiregulin (human) (UniProt O14944); experiment: cell-based or functional assay

EC50 (read off the curve) (TGFα (human)): 0.02 µg/mL
EC50 (read off the curve) [1]: 0.03 µg/mL
IC50, neutralization of epiregulin induced luciferase reporter activity in C166-AP1-Luciferase cells [2]: 11 nM
IC50, neutralization of epiregulin induced luciferase reporter activity in C166-AP1-Luciferase cells [3]: 720 nM
IC50, neutralization of epiregulin induced luciferase reporter activity in C166-AP1-Luciferase cells [4]: 8.6 nM
IC50, neutralization of epiregulin induced luciferase reporter activity in C166-AP1-Luciferase cells [5]: 25.9 nM
IC50, neutralization of human epiregulin induced phospho-ERK induction in TGW cells [5]: 14.6 nM
Substance: LY3016859 (antibody)
